Literature values in PMC8470622.
pKd: −log10 of the molar value. Several values for one entry are separate records, joined by “and”; a condition that tells them apart may be missing. Equal entries are not always repeated. Where two headings read alike, the source gives them in different places.

Key:
EGFR (Homo sapiens) [1] = target: EGFR (Homo sapiens) (UniProt P00533)
EGFR (Homo sapiens) [2] = target: EGFR (Homo sapiens) (UniProt P00533); test: radioligand
[3] = target: EGFR (high-affinity state) (Homo sapiens) (UniProt P00533); test: radioligand
[4] = target: EGFR (low-affinity state) (Homo sapiens) (UniProt P00533); test: radioligand

In the case of EGF (from UniProt P01133), the pKd (EGFR (Homo sapiens) [1]) is listed as 9.52 and 9.49, the pKd (EGFR (Homo sapiens) [2]) is listed as 8.82 and the pKd [3] is listed as 8.97. For the same substance, the pKd [4] was 8.55.
